Assay results published in publication PMC11480844.

B1: H2-Kb / B5 (parent)
chain 1: TQTVSQSDAHVTVFEGDSVELRCNYSYGGSIYLSWYIQHHGHGLQFLLKYYSGNPVVQGVNGFEAEFSKSDSSFHLRKASVHWSDSAVYFCAVSLYQGGRALIFGTGTTVSVSP
chain 2: EAGVTQSPRYAVLQEGQAVSFWCDPISGHDTLYWYQQPRDQGPQLLVYFRDEAVIDNSQLPSDRFSAVRPKGTNSTLKIQSAKQGDTATYLCASSFAGGARAEQFFGPGTRLTVL
chain 3: not shown
chain 4: IQKTPQIQVYSRHPPENGKPNILNCYVTQFHPPHIEIQMLKNGKKIPKVEMSDMSFSKDWSFYILAHTEFTPTETDTYACRVKHDSMAEPKTVYWDRDM
chain 5: SIINFEKL
B2: H2-Kb / F5 (parent)
chain 1: GDSVTQTEGLVTLTEGLPVMLNCTYQSTYSPFLFWYVQHLNEAPKLLLKSFTDNKRPEHQGFHATLHKSSSSFHLQKSSAQLSDSALYYCALSPSNMGYKLTFGTGTSLLVDP
chain 2: EAAVTQSPRNKVAVTGGKVTLSCNQTNNHNNMYWYRQDTGHGLRLIHYSYGAGSTEKGDIPDGYKASRPSQENFSLILELATPSQTSVYFCASGDASEQYFGPGTRLTVL
chain 3: not shown
chain 4: B1 chain 4
chain 5: SIINFEKL

Variants of: B1
Assay: % of reporter cells activated (NFAT-GFP), raw
Settings: with B5; scale: % of reporter cells activated
Note: test concentration or dose not given here.

Variant | ratio to parent
chain 5 E6G | 1.01
chain 5 E6W | 1.12
chain 5 E6V | 0.75
chain 5 E6F | 1.54
chain 5 E6I | 1.36
chain 5 E6R | 0.806
chain 5 E6Q | 1.24
chain 5 E6C | 1.38
chain 5 E6A | 0.708
chain 5 E6P | 1.11
chain 5 E6D | 1
chain 5 E6Y | 1.44
chain 5 E6L | 1.4
chain 5 E6S | 1.03
chain 5 E6N | 1.12
chain 5 E6H | 1.03
chain 5 E6M | 0.903
chain 5 E6T | 1.17
chain 5 E6K | 1.17
chain 5 I3H | 1.01
chain 5 I3D | 1
chain 5 I3R | 1.03
chain 5 I3Q | 0.792
chain 5 I3V | 1.1
chain 5 I3G | 0.917
chain 5 I3W | 7.01

Variant | ratio to parent
chain 5 I3N | 0.917
chain 5 I3F | 0.958
chain 5 I3Y | 0.917
chain 5 I3M | 0.972
chain 5 I3A | 1.01
chain 5 I3K | 1.11
chain 5 I3P | 1.08
chain 5 I3T | 0.764
chain 5 I3E | 1.17
chain 5 I3L | 0.847
chain 5 I3C | 0.792
chain 5 I3S | 1.54
chain 5 F5S | 0.806
chain 5 F5C | 1.92
chain 5 F5E | 0.472
chain 5 F5L | 0.958
chain 5 F5W | 0.694
chain 5 F5T | 0.653
chain 5 F5M | 1.01
chain 5 F5H | 0.556
chain 5 F5I | 0.597
chain 5 F5Q | 1.14
chain 5 F5P | 1.04
chain 5 F5Y | 1.29
chain 5 F5R | 1
chain 5 F5K | 1.06

Variant | ratio to parent
chain 5 F5G | 0.569
chain 5 F5D | 1.28
chain 5 F5N | 1.36
chain 5 F5A | 0.611
chain 5 F5V | 3.75
chain 5 N4I | 0.5
chain 5 N4H | 0.556
chain 5 N4R | 0.556
chain 5 N4L | 1.08
chain 5 N4A | 0.931
chain 5 N4V | 0.389
chain 5 N4M | 0.75
chain 5 N4T | 0.514
chain 5 N4E | 0.778
chain 5 N4G | 1.33
chain 5 N4K | 1.07
chain 5 N4C | 0.625
chain 5 N4S | 0.597
chain 5 N4F | 8.53
chain 5 N4Q | 1.71
chain 5 N4W | 0.931
chain 5 N4D | 1.08
chain 5 N4P | 0.917
chain 5 N4Y | 1
chain 5 L8Y | 0.958
chain 5 L8H | 1.21

Variant | ratio to parent
chain 5 L8T | 1.04
chain 5 L8I | 1.06
chain 5 L8S | 1.19
chain 5 L8P | 1.15
chain 5 L8N | 1.49
chain 5 L8V | 1.35
chain 5 L8Q | 1.86
chain 5 L8D | 1.33
chain 5 L8F | 1.53
chain 5 L8A | 1.54
chain 5 L8C | 1.4
chain 5 L8K | 0.903
chain 5 L8M | 1.61
chain 5 L8R | 1.78
chain 5 L8G | 0.972
chain 5 L8E | 1.42
chain 5 L8W | 1.47
chain 5 I2W | 1.51
chain 5 I2A | 0.736
chain 5 I2F | 0.875
chain 5 I2M | 1.58
chain 5 I2V | 0.375
chain 5 I2L | 1.17
chain 5 I2C | 0.694
chain 5 I2K | 0.889
chain 5 I2P | 1.12

Variant | ratio to parent
chain 5 I2H | 0.792
chain 5 I2D | 1.18
chain 5 I2G | 1.13
chain 5 I2Y | 1.01
chain 5 I2E | 1.1
chain 5 I2R | 0.819
chain 5 I2S | 0.694
chain 5 I2T | 0.542
chain 5 I2Q | 1.11
chain 5 I2N | 1.36
chain 5 S1A | 1.43
chain 5 S1H | 1.11
chain 5 S1R | 1.14
chain 5 S1E | 0.889
chain 5 S1V | 1.39
chain 5 S1Q | 1.08
chain 5 S1M | 1.22
chain 5 S1W | 1.65
chain 5 S1N | 1.24
chain 5 S1C | 0.875
chain 5 S1F | 1.22
chain 5 S1Y | 0.75
chain 5 S1K | 0.764
chain 5 S1T | 0.986
chain 5 S1G | 0.889
chain 5 S1D | 1.54

Variant | ratio to parent
chain 5 S1P | 0.917
chain 5 S1I | 1.14
chain 5 S1L | 0.764
chain 5 K7E | 1.31
chain 5 K7M | 1.57
chain 5 K7Q | 1.01
chain 5 K7P | 0.889
chain 5 K7R | 0.833
chain 5 K7G | 0.917
chain 5 K7A | 1.19
chain 5 K7D | 1.11
chain 5 K7I | 1.4
chain 5 K7F | 0.806
chain 5 K7W | 1.19
chain 5 K7V | 1.19
chain 5 K7L | 1.28
chain 5 K7N | 1.21
chain 5 K7Y | 1.38
chain 5 K7C | 1.14
chain 5 K7H | 1.29
chain 5 K7T | 1.17
chain 5 K7S | 0.944

Variants of: B2
Assay: % of reporter cells activated (NFAT-GFP), raw
Settings: with F5; scale: % of reporter cells activated

Variant | ratio to parent
chain 5 I3L | 0.547
chain 5 I3K | 0.345
chain 5 I3V | 0.487
chain 5 I3A | 0.386
chain 5 I3E | 0.517
chain 5 I3T | 0.356
chain 5 I3F | 0.3
chain 5 I3S | 0.348
chain 5 I3C | 0.419
chain 5 F5I | 0.607
chain 5 F5T | 1.2
chain 5 F5D | 0.273
chain 5 F5E | 0.315
chain 5 F5S | 1.09
chain 5 F5Q | 1.76
